Data on 14 molecules can be found in US20210388087A1 (Chugai, published 2021).

The chains are these.
B1: dBBDu183H P61N / dBBDu072L (antibody, name in Kabat numbering, V domains shown)
VH: QVQLVESGGGLVQPGRSLRLSCAASGFTFSNAWMHWVRQAPGKGLEWVAQIKDKGNAYAAYYANSVKGRFTISRDDSKNSIYLQMNSLKTEDTAVYYCHYVHYASASTVLPAFGVDAWGQGTTVTVSS
VL: DIVMTQSPLSLPVTPGEPASISCQASQELVHMNRNTYLHWYQQKPGQAPRLLIYKVSNRFPGVPDRFSGSGSGTDFTLKISRVEAEDVGVYYCAQGTSVPFTFGQGTKLEIK
notes: as m1, one VH change
B2: dBBDu183H P61T / dBBDu072L (antibody, name in Kabat numbering, V domains shown)
VH: QVQLVESGGGLVQPGRSLRLSCAASGFTFSNAWMHWVRQAPGKGLEWVAQIKDKGNAYAAYYATSVKGRFTISRDDSKNSIYLQMNSLKTEDTAVYYCHYVHYASASTVLPAFGVDAWGQGTTVTVSS
VL: DIVMTQSPLSLPVTPGEPASISCQASQELVHMNRNTYLHWYQQKPGQAPRLLIYKVSNRFPGVPDRFSGSGSGTDFTLKISRVEAEDVGVYYCAQGTSVPFTFGQGTKLEIK
notes: as m1, one VH change
B3: dBBDu183H P61Q / dBBDu072L (antibody, name in Kabat numbering, V domains shown)
VH: QVQLVESGGGLVQPGRSLRLSCAASGFTFSNAWMHWVRQAPGKGLEWVAQIKDKGNAYAAYYAQSVKGRFTISRDDSKNSIYLQMNSLKTEDTAVYYCHYVHYASASTVLPAFGVDAWGQGTTVTVSS
VL: DIVMTQSPLSLPVTPGEPASISCQASQELVHMNRNTYLHWYQQKPGQAPRLLIYKVSNRFPGVPDRFSGSGSGTDFTLKISRVEAEDVGVYYCAQGTSVPFTFGQGTKLEIK
notes: as m1, one VH change
B4: dBBDu183H P100eH / dBBDu072L (antibody, name in Kabat numbering, V domains shown)
VH: QVQLVESGGGLVQPGRSLRLSCAASGFTFSNAWMHWVRQAPGKGLEWVAQIKDKGNAYAAYYAPSVKGRFTISRDDSKNSIYLQMNSLKTEDTAVYYCHYVHYASASTVLHAFGVDAWGQGTTVTVSS
VL: DIVMTQSPLSLPVTPGEPASISCQASQELVHMNRNTYLHWYQQKPGQAPRLLIYKVSNRFPGVPDRFSGSGSGTDFTLKISRVEAEDVGVYYCAQGTSVPFTFGQGTKLEIK
notes: as m1, one VH change
B5: dBBDu183H P61W / dBBDu072L (antibody, name in Kabat numbering, V domains shown)
VH: QVQLVESGGGLVQPGRSLRLSCAASGFTFSNAWMHWVRQAPGKGLEWVAQIKDKGNAYAAYYAWSVKGRFTISRDDSKNSIYLQMNSLKTEDTAVYYCHYVHYASASTVLPAFGVDAWGQGTTVTVSS
VL: DIVMTQSPLSLPVTPGEPASISCQASQELVHMNRNTYLHWYQQKPGQAPRLLIYKVSNRFPGVPDRFSGSGSGTDFTLKISRVEAEDVGVYYCAQGTSVPFTFGQGTKLEIK
notes: as m1, one VH change
B6: dBBDu183H P61R / dBBDu072L (antibody, name in Kabat numbering, V domains shown)
VH: QVQLVESGGGLVQPGRSLRLSCAASGFTFSNAWMHWVRQAPGKGLEWVAQIKDKGNAYAAYYARSVKGRFTISRDDSKNSIYLQMNSLKTEDTAVYYCHYVHYASASTVLPAFGVDAWGQGTTVTVSS
VL: DIVMTQSPLSLPVTPGEPASISCQASQELVHMNRNTYLHWYQQKPGQAPRLLIYKVSNRFPGVPDRFSGSGSGTDFTLKISRVEAEDVGVYYCAQGTSVPFTFGQGTKLEIK
notes: as m1, one VH change
B7: dBBDu183H P100eQ / dBBDu072L (antibody, name in Kabat numbering, V domains shown)
VH: QVQLVESGGGLVQPGRSLRLSCAASGFTFSNAWMHWVRQAPGKGLEWVAQIKDKGNAYAAYYAPSVKGRFTISRDDSKNSIYLQMNSLKTEDTAVYYCHYVHYASASTVLQAFGVDAWGQGTTVTVSS
VL: DIVMTQSPLSLPVTPGEPASISCQASQELVHMNRNTYLHWYQQKPGQAPRLLIYKVSNRFPGVPDRFSGSGSGTDFTLKISRVEAEDVGVYYCAQGTSVPFTFGQGTKLEIK
notes: as m1, one VH change
B8: dBBDu183H P61Y / dBBDu072L (antibody, name in Kabat numbering, V domains shown)
VH: QVQLVESGGGLVQPGRSLRLSCAASGFTFSNAWMHWVRQAPGKGLEWVAQIKDKGNAYAAYYAYSVKGRFTISRDDSKNSIYLQMNSLKTEDTAVYYCHYVHYASASTVLPAFGVDAWGQGTTVTVSS
VL: DIVMTQSPLSLPVTPGEPASISCQASQELVHMNRNTYLHWYQQKPGQAPRLLIYKVSNRFPGVPDRFSGSGSGTDFTLKISRVEAEDVGVYYCAQGTSVPFTFGQGTKLEIK
notes: as m1, one VH change
B9: dBBDu183H P61S / dBBDu072L (antibody, name in Kabat numbering, V domains shown)
VH: QVQLVESGGGLVQPGRSLRLSCAASGFTFSNAWMHWVRQAPGKGLEWVAQIKDKGNAYAAYYASSVKGRFTISRDDSKNSIYLQMNSLKTEDTAVYYCHYVHYASASTVLPAFGVDAWGQGTTVTVSS
VL: DIVMTQSPLSLPVTPGEPASISCQASQELVHMNRNTYLHWYQQKPGQAPRLLIYKVSNRFPGVPDRFSGSGSGTDFTLKISRVEAEDVGVYYCAQGTSVPFTFGQGTKLEIK
notes: as m1, one VH change
B10: dBBDu183H P100eN / dBBDu072L (antibody, name in Kabat numbering, V domains shown)
VH: QVQLVESGGGLVQPGRSLRLSCAASGFTFSNAWMHWVRQAPGKGLEWVAQIKDKGNAYAAYYAPSVKGRFTISRDDSKNSIYLQMNSLKTEDTAVYYCHYVHYASASTVLNAFGVDAWGQGTTVTVSS
VL: DIVMTQSPLSLPVTPGEPASISCQASQELVHMNRNTYLHWYQQKPGQAPRLLIYKVSNRFPGVPDRFSGSGSGTDFTLKISRVEAEDVGVYYCAQGTSVPFTFGQGTKLEIK
notes: as m1, one VH change
B11: dBBDu183H P100eD / dBBDu072L (antibody, name in Kabat numbering, V domains shown)
VH: QVQLVESGGGLVQPGRSLRLSCAASGFTFSNAWMHWVRQAPGKGLEWVAQIKDKGNAYAAYYAPSVKGRFTISRDDSKNSIYLQMNSLKTEDTAVYYCHYVHYASASTVLDAFGVDAWGQGTTVTVSS
VL: DIVMTQSPLSLPVTPGEPASISCQASQELVHMNRNTYLHWYQQKPGQAPRLLIYKVSNRFPGVPDRFSGSGSGTDFTLKISRVEAEDVGVYYCAQGTSVPFTFGQGTKLEIK
notes: as m1, one VH change
B12: dBBDu183H P100eG / dBBDu072L (antibody, name in Kabat numbering, V domains shown)
VH: QVQLVESGGGLVQPGRSLRLSCAASGFTFSNAWMHWVRQAPGKGLEWVAQIKDKGNAYAAYYAPSVKGRFTISRDDSKNSIYLQMNSLKTEDTAVYYCHYVHYASASTVLGAFGVDAWGQGTTVTVSS
VL: DIVMTQSPLSLPVTPGEPASISCQASQELVHMNRNTYLHWYQQKPGQAPRLLIYKVSNRFPGVPDRFSGSGSGTDFTLKISRVEAEDVGVYYCAQGTSVPFTFGQGTKLEIK
notes: as m1, one VH change
B13: dBBDu183H P100eK / dBBDu072L (antibody, name in Kabat numbering, V domains shown)
VH: QVQLVESGGGLVQPGRSLRLSCAASGFTFSNAWMHWVRQAPGKGLEWVAQIKDKGNAYAAYYAPSVKGRFTISRDDSKNSIYLQMNSLKTEDTAVYYCHYVHYASASTVLKAFGVDAWGQGTTVTVSS
VL: DIVMTQSPLSLPVTPGEPASISCQASQELVHMNRNTYLHWYQQKPGQAPRLLIYKVSNRFPGVPDRFSGSGSGTDFTLKISRVEAEDVGVYYCAQGTSVPFTFGQGTKLEIK
notes: as m1, one VH change
B14: dBBDu183H P100eE / dBBDu072L (antibody, name in Kabat numbering, V domains shown)
VH: QVQLVESGGGLVQPGRSLRLSCAASGFTFSNAWMHWVRQAPGKGLEWVAQIKDKGNAYAAYYAPSVKGRFTISRDDSKNSIYLQMNSLKTEDTAVYYCHYVHYASASTVLEAFGVDAWGQGTTVTVSS
VL: DIVMTQSPLSLPVTPGEPASISCQASQELVHMNRNTYLHWYQQKPGQAPRLLIYKVSNRFPGVPDRFSGSGSGTDFTLKISRVEAEDVGVYYCAQGTSVPFTFGQGTKLEIK
notes: as m1, one VH change

T1 sequence (chain, as listed by the source limits assumed): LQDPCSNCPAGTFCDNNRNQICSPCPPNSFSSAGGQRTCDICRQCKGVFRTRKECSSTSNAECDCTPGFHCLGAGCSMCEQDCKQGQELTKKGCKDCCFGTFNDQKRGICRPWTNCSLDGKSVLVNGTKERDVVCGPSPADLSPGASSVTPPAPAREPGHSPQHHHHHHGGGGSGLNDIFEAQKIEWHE

This test addresses T1, Human CD137 ECD (human).
T1 construct: also called 4-1BB
Briefly: SPR, vs parent H183/L072.
On to B1, for which the “fold change of affinity” value was 1.2 fold.

Regarding B2, the “fold change of affinity” value was found to be 1.4 fold.

For B3, the “fold change of affinity” value was found to be 0.6 fold.

Regarding B4, the “fold change of affinity” value was determined as 0.1 fold.

On to B5, for which the “fold change of affinity” value is 0.8 fold.

Regarding B6, the “fold change of affinity” value stood at 1 fold.

B7: the “fold change of affinity” value was determined as 0.4 fold.

As for B8, the “fold change of affinity” value worked out at 0.7 fold.

For B9, the “fold change of affinity” value was found to be 1.1 fold.

For the molecule B10, the “fold change of affinity” value was found to be 0.2 fold.

With B11, the “fold change of affinity” value was 0.3 fold.

B12: the “fold change of affinity” value stood at 0.4 fold.

Take B13: the “fold change of affinity” value turned out to be 0.3 fold.

In the case of B14, the “fold change of affinity” value was determined as 0.8 fold.
